The text below walks through data of PMC8722725, “Histone H3 deacetylation promotes host cell viability for efficient infection by Listeria monocytogenes” (PLoS Pathogens, 2021).

The assay addresses T1, mCherry-TDP-43 (UniProt Q13148 1-414).
T1 construct: TDP-43, cloned from the plasmid TDP43 NOTAG1 (Addgene #28206); also called pmCherry TDP-43; source: HeLa, co-transfected, in lysate
Put plainly: co-IP; RFP-Trap agarose beads on lysate of HeLa cells co-transfected with mCherry-TDP-43 and SIRT2-GFP variants; blot for TDP-43 and GFP. Particulars: partners not purified.

T1 sequence (Q13148 whole entry): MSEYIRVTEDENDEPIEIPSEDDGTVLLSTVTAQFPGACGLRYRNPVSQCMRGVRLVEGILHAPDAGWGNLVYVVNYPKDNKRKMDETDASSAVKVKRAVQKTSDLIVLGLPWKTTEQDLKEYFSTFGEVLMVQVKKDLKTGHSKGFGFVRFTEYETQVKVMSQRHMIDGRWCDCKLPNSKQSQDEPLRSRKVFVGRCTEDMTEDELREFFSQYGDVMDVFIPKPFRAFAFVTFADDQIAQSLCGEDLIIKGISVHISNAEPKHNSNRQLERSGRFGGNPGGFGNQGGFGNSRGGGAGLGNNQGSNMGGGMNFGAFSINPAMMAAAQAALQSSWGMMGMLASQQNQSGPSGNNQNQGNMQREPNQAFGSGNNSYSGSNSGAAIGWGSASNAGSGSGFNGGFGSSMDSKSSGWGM

B1: dephosphomimetic S25A SIRT2-GFP (enzyme, UniProt Q8IXJ6 1-389, looked up)
chain: MAEPDPSHPLETQAGKVQEAQDSDADSEGGAAGGEADMDFLRNLFSQTLSLGSQKERLLDELTLEGVARYMQSERCRRVICLVGAGISTSAGIPDFRSPSTGLYDNLEKYHLPYPEAIFEISYFKKHPEPFFALAKELYPGQFKPTICHYFMRLLKDKGLLLRCYTQNIDTLERIAGLEQEDLVEAHGTFYTSHCVSASCRHEYPLSWMKEKIFSEVTPKCEDCQSLVKPDIVFFGESLPARFFSCMQSDFLKVDLLLVMGTSLQVQPFASLISKAPLSTPRLLINKEKAGQSDPFLGMIMGLGGGMDFDSKKAYRDVAWLGECDQGCLALAELLGWKKELEDLVRREHASIDAQSGAGVPNPSTSASPKKSPPPAKDEARTTEREKPQ
notes: Sirtuin 2 (SIRT2) with the dephosphomimetic change S25A; also called S25A dephosphomimetic; source: HeLa, co-transfected, in lysate
B1: the “fold increase in co-precipitation relative to the WT variant” value is about 2.5 fold.
